Data reported in patent US20210284725A1 (Genentech, published 2021).
Positions count from the first letter of the chain named. One block for each binder: values may come before it.

Assays:
[1] = molecular target: T1, human IL-33 (His-tagged) (human, UniProt O95760 112-270, limits assumed); assay: SPR Biacore T200, IgG captured on protein A chip, His-tagged human IL-33 analyte, 25 C, n=2; column head prints 'KD (nM)' but the E-notation cells are in M, unit corrected to M
T1 construct: not shown: His tag
T1 sequence (looked up): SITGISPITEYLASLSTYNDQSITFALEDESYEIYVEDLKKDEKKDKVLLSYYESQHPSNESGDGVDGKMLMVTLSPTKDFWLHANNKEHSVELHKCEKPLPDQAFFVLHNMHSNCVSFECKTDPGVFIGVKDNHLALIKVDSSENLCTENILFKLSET
Description: A protein A sensorchip (GE Healthcare) was used following manufacturer provided protocols to capture humanized anti-IL-33 antibodies using a BIACORE® T200 instrument (GE). Antibody binding was measured to human IL-33 (His-tagged) using multi-cycle kinetics. Sensorgrams for binding of IL-33 were recorded using an injection time of 2 min with a flow rate of 30 μl/min, at a temperature of 25° C., and with a running buffer of 10 mM HEPES, pH 7.4, 150 mM NaCl, 3 mM EDTA, and 0.005% TWEEN620. After injection, disassociation of IL-33 from the antibody was monitored for 10 min in running buffer. The surface was regenerated between binding cycles with a 30 μl injection of 10 mM Glycine HCl pH 1.5. After subtraction of a blank which contained running buffer only, sensorgrams observed for cytokine binding to anti-IL-33 antibody were analyzed using a 1:1 Langmuir binding model with software supplied by the manufacturer to calculate the kinetics and binding constants.

[2] = molecular target: T2, human IL-33 (human, UniProt O95760 112-270, limits assumed); assay: cell-based or functional assay
T2 sequence (looked up): T1 sequence (looked up)

[3] = molecular target: T3, cyno IL-33 (His-tagged) (cynomolgus monkey, UniProt A0A2K5W3I1 112-269); assay: SPR Biacore 8k, Fab amine-coupled to CM5 chip, His-tagged IL-33 analyte, 35 C, 1:1 Langmuir
T3 construct: not shown: His tag
T3 sequence: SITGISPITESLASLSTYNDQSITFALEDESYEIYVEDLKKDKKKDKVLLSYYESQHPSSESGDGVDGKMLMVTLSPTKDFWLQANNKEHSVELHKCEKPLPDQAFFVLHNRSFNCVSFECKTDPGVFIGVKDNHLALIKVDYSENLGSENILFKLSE
Description: (§1) The binding kinetics of the 1E1v8 Fab were measured using SPR on a BIACORE® 8k instrument (GE Healthcare). 1E1v8 Fab was directly immobilized on 4 different flow cells of a CM5 Series S sensorchip at low density using amine coupling. Antibody fragment binding was measured to human and cyno IL-33 (His-tagged) using a concentration series starting with 50 nM with 1:3 dilutions. Sensorgrams for binding of IL-33 were recorded using an injection time of 2 min with a flow rate of 100 μl/min, at a temperature of 25° C. or 35° C., and with a running buffer of 10 mM HEPES, pH 7.4, 150 mM NaCl, 3 mM EDTA, and 0.005% TWEEN®20. After injection, disassociation of the IL-33 from the antibody was monitored for 30 min in running buffer. The surface was regenerated between binding cycles with a 30 μl injection of 10 mM glycine HCl pH 1.7. After subtraction of a blank which contained running buffer only, sensorgrams observed for cytokine binding to anti-IL-33 antibody were analyzed using a 1:1 Langmuir binding model with software supplied by the manufacturer to calculate the kinetics and binding constants.

[4] = molecular target: T1, human IL-33 (His-tagged); assay: as above
Description: as §1

[5] = molecular target: T3, cyno IL-33 (His-tagged); assay: SPR Biacore 8k, Fab amine-coupled to CM5 chip, His-tagged IL-33 analyte, 25 C, 1:1 Langmuir
Description: as §1

[6] = molecular target: T1, human IL-33 (His-tagged); assay: as above
Description: as §1

B1: 1E1v10 (antibody, human IgG1, V domains shown)
VH: EVQLVESGGGLVQPGGSLRLSCAASGFTFNNYWMTWVRQAPGKGLEWVASITYTGGGTYYPDSVKGRFTISRDDAKSSLYLQMNSLRAEDTAVYYCTRANYYYNTYGGFPYWGQGTLVTVSS
VL: DIQMTQSPSSLSASVGDRVTITCLASEGFSNDLAWYQQKPGKAPKSLIYAASRLQDGVPSRFSGSGSGTDFTLTISSLQPEDFATYFCQQGSKYPLTFGGGTKVEIK
notes: Humanized 1E1 variant, human IgG1 backbone, expressed in Expi293F
Kd [1]: 0.121 nM

B3: 1E1v7 (antibody, human IgG1, V domains shown)
VH: B1 VH with D74N
VL: B1 VL with A43S, S46L
notes: as for B1
Kd [1]: 0.144 nM

B4: 1E1v2 (antibody, human IgG1, V domains shown)
VH: B1 VH with V37I, V48I
VL: B1 VL with Y36F, F87Y
notes: as for B1
Kd [1]: 0.203 nM

B5: 1E1v1 (antibody, human IgG1, V domains shown)
VH: B1 VH with D74N, S77N
VL: B1 VL with Y36F, F87Y
notes: as for B1
Kd [1]: 0.295 nM

B6: 1E1v8 (human IgG1) (antibody, V domains shown)
VH: B1 VH with V37I
VL: B1 VL with A43S, S46L
IC50 (M), IL-33 neutralization activity, HEK-BLUE IL-33 cells, human IL-33 at 160 pM [2]: 3.11e-11 M
Kd [1]: 0.118 nM

B8: 1E1v9 (antibody, human IgG1, V domains shown)
VH: B1 VH with V37I, V48I
VL: B1 VL
notes: as for B1
IC50 (M), IL-33 neutralization activity, HEK-BLUE IL-33 cells, human IL-33 at 160 pM [2]: 3.05e-11 M
Kd [1]: 0.129 nM

B9: 1E1v3 (antibody, human IgG1, V domains shown)
VH: B1 VH with D74N, S77N
VL: B1 VL with A43S, S46L
notes: as for B1
Kd [1]: 0.149 nM

B11: 1E1v6 (antibody, human IgG1, V domains shown)
VH: B1 VH with S77N
VL: B1 VL with A43S, S46L
notes: as for B1
Kd [1]: 0.132 nM

B12: 1E1v5 (antibody, human IgG1, V domains shown)
VH: B1 VH
VL: B1 VL with A43S, S46L
notes: as for B1
Kd [1]: 0.144 nM

B14: 1E1v4 (antibody, human IgG1, V domains shown)
VH: B1 VH with V37I, V48I
VL: B1 VL with A43S, S46L
notes: as for B1
IC50 (M), IL-33 neutralization activity, HEK-BLUE IL-33 cells, human IL-33 at 160 pM [2]: 3.11e-11 M
Kd [1]: 0.154 nM

B16: 1E1v12 (antibody, human IgG1, V domains shown)
VH: B1 VH with D74N
VL: B1 VL
notes: as for B1
IC50 (M), IL-33 neutralization activity, HEK-BLUE IL-33 cells, human IL-33 at 160 pM [2]: 2.44e-11 M
Kd [1]: 0.163 nM

B17: 1E1v11 (antibody, human IgG1, V domains shown)
VH: B1 VH with S77N
VL: B1 VL
notes: as for B1
Kd [1]: 0.123 nM

B22: 1E1v8 Fab (Fab, V domains shown)
VH: B1 VH with V37I
VL: B1 VL with A43S, S46L
notes: also called 1E1v8 human Fab; anti-IL-33 1E1v8 Fab
Kd [3]: 0.0345 nM
koff [3]: 1.82e-05 s⁻¹
kon [3]: 527000 M⁻¹ s⁻¹
Kd [4]: 0.0148 nM
koff [4]: 1.26e-05 s⁻¹
kon [4]: 858000 M⁻¹ s⁻¹
Kd [5]: 0.0223 nM
koff [5]: 7.85e-06 s⁻¹
kon [5]: 354000 M⁻¹ s⁻¹
Kd [6]: 0.0147 nM
koff [6]: 9.99e-06 s⁻¹
kon [6]: 684000 M⁻¹ s⁻¹

Other lines, results leading:

IC50 (M), IL-33 neutralization activity, HEK-BLUE IL-33 cells, human IL-33 at 160 pM [2]: 2.9e-11 M
Kd [1]: 0.148 nM
B2: ch1E1 (antibody, V domains shown)
VH: B1 VH with G16T, R19K, A23L, V37I, V48I, S78T, A88S, V93T
VL: DIQMTQSPASLSASLGETVSIECLASEGFSNDLAWYQQKSGKSPQLLIYAASRLQDGVPSRFSGSGSGTRFSLKISGMQPEDEADYFCQQGSKYPLTFGSGTKLEIKR

Kd [1]: 0.151 nM
B7: 1E1v23 (antibody, human IgG1, V domains shown)
VH: B1 VH with V48I
VL: B1 VL with F87Y
notes: as for B1

Kd [1]: 0.172 nM
B10: 1E1v18 (antibody, human IgG1, V domains shown)
VH: B1 VH with V48I
VL: B1 VL with Y36F
notes: as for B1

Kd [1]: 0.179 nM
B13: 1E1v16 (antibody, human IgG1, V domains shown)
VH: B1 VH with S77N
VL: B1 VL with Y36F
notes: as for B1

IC50 (M), IL-33 neutralization activity, HEK-BLUE IL-33 cells, human IL-33 at 160 pM [2]: 3.19e-11 M
Kd [1]: 0.132 nM
B15: 1E1v19 (antibody, human IgG1, V domains shown)
VH: B1 VH with V37I, V48I
VL: B1 VL with F87Y
notes: as for B1

IC50 (M), IL-33 neutralization activity, HEK-BLUE IL-33 cells, human IL-33 at 160 pM [2]: 3.1e-11 M
Kd [1]: 0.155 nM
B18: 1E1v21 (antibody, human IgG1, V domains shown)
VH: B1 VH with S77N
VL: B1 VL with F87Y
notes: as for B1

Kd [1]: 0.195 nM
B19: 1E1v15 (antibody, human IgG1, V domains shown)
VH: B1 VH
VL: B1 VL with Y36F
notes: as for B1

Kd [1]: 0.163 nM
B20: 1E1v14 (antibody, human IgG1, V domains shown)
VH: B1 VH with V37I, V48I
VL: B1 VL with Y36F
notes: as for B1

IC50 (M), IL-33 neutralization activity, HEK-BLUE IL-33 cells, human IL-33 at 160 pM [2]: 2.98e-11 M
Kd [1]: 0.14 nM
B21: 1E1v13 (antibody, human IgG1, V domains shown)
VH: B1 VH with V48I
VL: B1 VL
notes: as for B1

Kd [1]: 0.285 nM
B23: 1E1v17 (antibody, human IgG1, V domains shown)
VH: B1 VH with D74N
VL: B1 VL with Y36F
notes: as for B1

IC50 (M), IL-33 neutralization activity, HEK-BLUE IL-33 cells, human IL-33 at 160 pM [2]: 3.44e-11 M
Kd [1]: 0.128 nM
B24: 1E1v20 (antibody, human IgG1, V domains shown)
VH: B1 VH
VL: B1 VL with F87Y
notes: as for B1

Kd [1]: 0.146 nM
B25: 1E1v22 (antibody, human IgG1, V domains shown)
VH: B1 VH with D74N
VL: B1 VL with F87Y
notes: as for B1
